One experiment has as its target type 1 collagen (UniProt P02452). As to the kind of experiment: ELISA.
A further experiment concerns the target von Willebrand factor (UniProt P04275 764-2813). The experiment is described as follows: ELISA. (In general: ELISA stands for enzyme-linked immunosorbent assay.)

Sequence of type 1 collagen (P02452 23-1218, chain 1 of 2): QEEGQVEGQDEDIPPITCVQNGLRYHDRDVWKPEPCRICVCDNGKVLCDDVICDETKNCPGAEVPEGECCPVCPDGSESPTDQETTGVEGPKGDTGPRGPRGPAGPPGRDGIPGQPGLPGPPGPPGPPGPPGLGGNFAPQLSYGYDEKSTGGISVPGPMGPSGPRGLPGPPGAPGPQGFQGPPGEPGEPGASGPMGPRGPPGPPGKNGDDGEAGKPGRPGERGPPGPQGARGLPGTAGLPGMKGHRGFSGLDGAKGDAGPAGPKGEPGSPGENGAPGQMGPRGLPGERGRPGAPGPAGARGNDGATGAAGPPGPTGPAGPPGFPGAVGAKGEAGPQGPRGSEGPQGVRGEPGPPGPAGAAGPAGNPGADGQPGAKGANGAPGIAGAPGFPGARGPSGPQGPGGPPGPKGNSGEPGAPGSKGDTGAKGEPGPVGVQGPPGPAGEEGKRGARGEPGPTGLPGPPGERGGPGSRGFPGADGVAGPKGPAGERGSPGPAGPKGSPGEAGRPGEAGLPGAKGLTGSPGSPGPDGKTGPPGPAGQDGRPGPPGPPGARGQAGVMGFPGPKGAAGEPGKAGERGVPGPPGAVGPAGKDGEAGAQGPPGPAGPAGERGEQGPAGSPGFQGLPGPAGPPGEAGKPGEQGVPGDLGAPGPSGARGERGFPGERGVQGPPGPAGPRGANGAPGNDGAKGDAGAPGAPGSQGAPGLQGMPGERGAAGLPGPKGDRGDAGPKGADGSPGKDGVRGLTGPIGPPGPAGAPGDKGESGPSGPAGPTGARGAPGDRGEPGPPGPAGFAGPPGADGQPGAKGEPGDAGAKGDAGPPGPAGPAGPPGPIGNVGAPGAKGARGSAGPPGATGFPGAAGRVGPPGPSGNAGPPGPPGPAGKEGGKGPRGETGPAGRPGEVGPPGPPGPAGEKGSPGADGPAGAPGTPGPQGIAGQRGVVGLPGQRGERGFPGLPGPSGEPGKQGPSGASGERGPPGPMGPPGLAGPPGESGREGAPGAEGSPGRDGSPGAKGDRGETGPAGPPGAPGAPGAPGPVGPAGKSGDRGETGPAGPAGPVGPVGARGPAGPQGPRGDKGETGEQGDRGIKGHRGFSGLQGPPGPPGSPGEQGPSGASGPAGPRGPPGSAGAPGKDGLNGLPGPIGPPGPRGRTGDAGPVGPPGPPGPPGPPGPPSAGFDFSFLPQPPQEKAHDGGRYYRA
Sequence of type 1 collagen (P08123 80-1119, chain 2 of 2, further chain): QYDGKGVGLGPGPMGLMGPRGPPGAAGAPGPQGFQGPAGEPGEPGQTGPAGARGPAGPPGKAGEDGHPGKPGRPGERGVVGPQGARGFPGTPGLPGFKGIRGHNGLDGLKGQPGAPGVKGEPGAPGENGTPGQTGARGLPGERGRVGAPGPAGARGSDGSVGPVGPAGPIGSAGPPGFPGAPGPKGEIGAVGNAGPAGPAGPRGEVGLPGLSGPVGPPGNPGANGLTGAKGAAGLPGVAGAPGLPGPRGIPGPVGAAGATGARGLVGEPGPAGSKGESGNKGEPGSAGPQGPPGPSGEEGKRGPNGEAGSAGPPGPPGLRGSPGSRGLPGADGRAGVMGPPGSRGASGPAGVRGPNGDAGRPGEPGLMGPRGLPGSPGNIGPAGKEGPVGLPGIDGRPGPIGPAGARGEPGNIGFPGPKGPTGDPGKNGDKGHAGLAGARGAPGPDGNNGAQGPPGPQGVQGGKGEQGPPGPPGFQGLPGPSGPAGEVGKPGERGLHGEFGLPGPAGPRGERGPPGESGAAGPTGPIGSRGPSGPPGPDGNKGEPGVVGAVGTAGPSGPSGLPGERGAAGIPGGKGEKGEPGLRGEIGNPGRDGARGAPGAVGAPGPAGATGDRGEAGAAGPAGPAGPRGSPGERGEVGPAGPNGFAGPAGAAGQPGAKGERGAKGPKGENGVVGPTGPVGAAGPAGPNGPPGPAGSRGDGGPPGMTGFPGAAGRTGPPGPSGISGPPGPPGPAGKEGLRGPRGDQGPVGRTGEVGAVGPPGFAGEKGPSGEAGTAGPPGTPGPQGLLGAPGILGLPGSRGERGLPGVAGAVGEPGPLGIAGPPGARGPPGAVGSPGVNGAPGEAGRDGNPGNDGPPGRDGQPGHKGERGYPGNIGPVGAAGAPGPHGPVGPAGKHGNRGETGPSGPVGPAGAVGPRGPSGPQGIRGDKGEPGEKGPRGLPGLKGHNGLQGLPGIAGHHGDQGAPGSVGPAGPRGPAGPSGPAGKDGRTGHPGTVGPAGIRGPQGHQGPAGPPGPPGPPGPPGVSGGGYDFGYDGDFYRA

B1: Recombinant human full-length ADAMTS13 (enzyme, UniProt Q76LX8 75-1427, looked up)
chain: AAGGILHLELLVAVGPDVFQAHQEDTERYVLTNLNIGAELLRDPSLGAQFRVHLVKMVILTEPEGAPNITANLTSSLLSVCGWSQTINPEDDTDPGHADLVLYITRFDLELPDGNRQVRGVTQLGGACSPTWSCLITEDTGFDLGVTIAHEIGHSFGLEHDGAPGSGCGPSGHVMASDGAAPRAGLAWSPCSRRQLLSLLSAGRARCVWDPPRPQPGSAGHPPDAQPGLYYSANEQCRVAFGPKAVACTFAREHLDMCQALSCHTDPLDQSSCSRLLVPLLDGTECGVEKWCSKGRCRSLVELTPIAAVHGRWSSWGPRSPCSRSCGGGVVTRRRQCNNPRPAFGGRACVGADLQAEMCNTQACEKTQLEFMSQQCARTDGQPLRSSPGGASFYHWGAAVPHSQGDALCRHMCRAIGESFIMKRGDSFLDGTRCMPSGPREDGTLSLCVSGSCRTFGCDGRMDSQQVWDRCQVCGGDNSTCSPRKGSFTAGRAREYVTFLTVTPNLTSVYIANHRPLFTHLAVRIGGRYVVAGKMSISPNTTYPSLLEDGRVEYRVALTEDRLPRLEEIRIWGPLQEDADIQVYRRYGEEYGNLTRPDITFTYFQPKPRQAWVWAAVRGPCSVSCGAGLRWVNYSCLDQARKELVETVQCQGSQQPPAWPEACVLEPCPPYWAVGDFGPCSASCGGGLRERPVRCVEAQGSLLKTLPPARCRAGAQQPAVALETCNPQPCPARWEVSEPSSCTSAGGAGLALENETCVPGADGLEAPVTEGPGSVDEKLPAPEPCVGMSCPPGWGHLDATSAGEKAPSPWGSIRTGAQAAHVWTPAAGSCSVSCGRGLMELRFLCMDSALRVPVQEELCGLASKPGSRREVCQAVPCPARWQYKLAACSVSCGRGVVRRILYCARAHGEDDGEEILLDTQCQGLPRPEPQEACSLEPCPPRWKVMSLGPCSASCGLGTARRSVACVQLDQGQDVEVDEAACAALVRPEASVPCLIADCTYRWHVGTWMECSVSCGDGIQRRRDTCLGPQAQAPVPADFCQHLPKPVTVRGCWAGPCVGQGTPSLVPHEEAAAPGRTTATPAGASLEWSQARGLLFSPAPQPRRLLPGPQENSVQSSACGRQHLEPTGTIDMRGPGQADCAVAIGRPLGEVVTLRVLESSLNCSAGDMLLLWGRLTWRKMCRKLLDMTFSSKTNTLVVRQRCGRPGGGVLLRYGSQLAPETFYRECDMQLFGPWGEIVSPSLSPATSNAGGCRLFINVAPHARIAIHALATNMGAGTEGANASYILIRDTHSLRTTAFHGQQVLYWESESSQAEMEFSEGFLKAQASLRGQYWTLQSWVPEMQDPQSWKGKEGT
With B1, the Kd with type 1 collagen amounted to 257 nM; in the experiment with von Willebrand factor it was 8.2 ± 1.6 nM.

By Kd is commonly meant a measure of binding affinity in units of concentration. Read a high Kd as lower affinity.

For the origin of these results see article PMC4013287 (Arteriosclerosis, thrombosis, and vascular biology, 2013).
